Experimental data as given in patent publication US12123009B2, “Methods and compositions for PPO herbicide tolerance in plants” (Monsanto Technology LLC, priority 2015, dated 2024).

Legend:
[1] = system: transgenic maize expressing HemG PPO enzymes; experiment: Transgenic Maize Herbicide Tolerance II (R0 plants sprayed); assay type: in vivo; details: 40 grams/ha; for Average Injury: V5, 7 days
Source text: H_N60 (SEQ ID NO:3). […] These five constructs had the same promoter plus leader plus intron combination, with two different targeting peptide (TP) sequences, and the same 3′UTR sequence. Leaf samples were taken from the R0 plants and analyzed by PCR to determine the transgene copy number. Single copy plants for up to 12 unique events per construct were transplanted to pots, selfed and outcrossed to generate R1 and F1 seed, respectively, for future testing. Multi-copy plants and extra single copy plants were sprayed with 40 grams/ha 5-3100 at approximately the V5 growth stage and injury ratings were taken 7 days after treatment. The average percent (%) injury for all plants expressing each PPO enzyme and the number of plants that were deemed highly tolerant (less than 10% injury) was noted, where each plant is a unique single or multi-copy transformant.

[2] = system: soybean (A3555), non-transgenic or expressing H_N10 (SEQ ID NO: 4); experiment: R0 soybean sprayed with S-3100; assay type: in vivo; details: 5 g/ha, V3, 8 days
Description: In soybean, excised embryos (A3555) were transformed with the transformation constructs 1 and 11 using A. tumefaciens and standard methods known in the art. […] Regenerated R0 transgenic plantlets were grown in the greenhouse. […] The herbicide was sprayed at the V3 developmental stage with three fully developed trifoliate leaves and injury ratings were assessed 8 days after treatment. The percentage of plants that were deemed highly tolerant (15% or less injury) was noted.
The herbicide was sprayed at the V3 developmental stage with three fully developed trifoliate leaves and injury ratings taken 8 days after treatment. The percentage of plants that were deemed highly tolerant (25% or less injury) was noted.

[3] = system: soybean, non-transgenic or expressing H_N10 (SEQ ID NO: 4); experiment: Green house S-3100 efficacy screen of R1 soybean; assay type: in vivo
Description: Single-copy transgenic R1 soybean plants in the greenhouse were sprayed with one of three herbicide application rates: Treatment 1 was 5 grams ai/ha S-3100 applied at V4 followed by (fb) R1; Treatment 2 was 10 grams ai/ha S-3100 applied at V4 fb R1; Treatment 3 was 30 grams ai/ha S-3100 applied at V4 fb R1. Crop Injury Percent at V2 (CIPV2) ratings were assessed ten days after treatment. Non-transgenic plants had average injury ratings of 89% to 100% and were not available for rating at the R1 growth stage.

[4] = biological target: H_N110 (SEQ ID NO: 10), microbial HemG protoporphyrinogen oxidase; experiment: PPO enzyme assay (bacterial extract); details: read-out: S-3100 IC50; 3 μM protogen; pH 7.4, 37° C.
soybean plantlets = experiment: High-throughput soybean screening for herbicide tolerance (plantlets); assay type: in vivo, soybean (A3555); design: key: 0 for poor tolerance, high damage, low green coloration; 1 for some tolerance, average damage, moderate green coloration; 2 for good tolerance, low damage, high green coloration; details: S-3100 spray five weeks post-transformation, scored day four
Outline: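 Soybean embryo explants (A3555) transformed via A. tumefaciens; at five weeks, plantlets sprayed with two passes of S-3100 (0.3 g in 5.0 mL crop oil concentrate plus 495 mL water). After four days with at least 15 h light daily, green coloration versus damage scored 0 (poor), 1 (some) or 2 (good tolerance).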

[5] = H_N10 (SEQ ID NO: 4), construct 11

In the case of `CCOC(=O)COc1ncccc1Oc1cc(-n2c(=O)cc(C(F)(F)F)n(C)c2=O)c(F)cc1Cl` [S-3100, ethyl [3-2-chloro-4-fluoro-5-(1-methyl-6-trifluoromethyl-2,4-dioxo-1,2,3,4-tetrahydropyrimidin-3-yl)phenoxy]-2-pyridyloxylacetate], the “Average Injury” value ([1]; H_N10 (SEQ ID NO 4), construct 6) is reported as 39.5%, the “Highly Tolerant (less than 10% injury)” value ([1]; H_N10 (SEQ ID NO 4), construct 6, of 139 plants) is reported as 31 plants and the “Average Injury” value ([1]; H_N40 (SEQ ID NO 6), construct 23) is reported as 47.0%. The “Highly Tolerant (less than 10% injury)” value ([1]; H_N40 (SEQ ID NO 6), construct 23, of 98 plants) was 53 plants, the “Average Injury” value ([1]; H_N60 (SEQ ID NO 3), construct 20) was 55.8% and the “Highly Tolerant (less than 10% injury)” value ([1]; H_N60 (SEQ ID NO 3), construct 20, of 86 plants) was 19 plants. For the same molecule, the “Average Injury” value ([1]; H_N90 (SEQ ID NO 1), construct 21) was 31.4%, the “Highly Tolerant (less than 10% injury)” value ([1]; H_N90 (SEQ ID NO 1), construct 21, of 99 plants) was 44 plants and the “Average Injury” value ([1]; H_N110 (SEQ ID NO 10), construct 22) was 43.0%. For the same molecule, the “Highly Tolerant (less than 10% injury)” value ([1]; H_N110 (SEQ ID NO 10), construct 22, of 94 plants) was 0 plants, the average injury rating [2, 5] was 47% and the “highly tolerant plants (25% or less injury)” value [2, 5] was 30%. For the same molecule, the average injury rating ([2]; non-transgenic) was 60%, the “highly tolerant plants (25% or less injury)” value ([2]; non-transgenic) was “no highly tolerant plants” and the “% Injury R1 stage” value ([3]; H_N10, construct 1, 5 g/ha) was 3%. The “% Injury V4 stage” value ([3]; H_N10, construct 1, 5 g/ha) was 4.2%, the “% Injury R1 stage” value ([3]; H_N10, construct 1, 10 g/ha) was 6.5% and the “% Injury V4 stage” value ([3]; H_N10, construct 1, 10 g/ha) was 7.8%. For the same molecule, the “% Injury R1 stage” value ([3]; H_N10, construct 1, 30 g/ha) was 15.7%, the “% Injury V4 stage” value ([3]; H_N10, construct 1, 30 g/ha) was 9.4% and the “% Injury V4 stage” value ([3]; Nontransgenic, 5 g/ha) was 89%. For the same molecule, the “% Injury V4 stage” value ([3]; Nontransgenic, 10 g/ha) was 98%, the “% Injury V4 stage” value ([3]; Nontransgenic, 30 g/ha) was 100% and the IC50 [4] was over 100 µM.

B1: H_N90: microbial HemG protoporphyrinogen oxidase, SEQ ID NO:1 (SEQ ID NO:11 lacking start methionine; variants 18, 19) (protein, listed as Enterobacter cloacae)
chain: MKALVLYSTRDGQTHAIASYIASCMKEKAECDVIDLTHGEHVNLTQYDQVLIGASIRYGHFNAVLDKFIKRNVDQLNNMPSAFFCVNLTARKPEKRTPQTNPYVRKFLLATPWQPALCGVFAGALRYPRYRWIDKVMIQLIMRMTGGETDTSKEVEYTDWEQVKKFAEDFAKLSYKKAL
Work on B1 yielded a coloration score (soybean plantlets; TP9) of 1, a coloration score (soybean plantlets; TP10) of 2 and a coloration score (soybean plantlets; TP11) of 2. The coloration score (soybean plantlets; TP12) was 2, the coloration score (soybean plantlets; TP13) was 2 and the coloration score (soybean plantlets; TP14) was 2. For the same molecule, the coloration score (soybean plantlets; TP15) was 2, the coloration score (soybean plantlets; TP16) was 1 and the coloration score (soybean plantlets; TP17) was 2. For the same molecule, the coloration score (soybean plantlets; TP18) was 2, the coloration score (soybean plantlets; TP19) was 1 and the coloration score (soybean plantlets; TP20) was 2. It also gave a coloration score (soybean plantlets; TP21) of 1, a coloration score (soybean plantlets; TP22) of 2 and a coloration score (soybean plantlets; TP23) of 1. For the same molecule, the coloration score (soybean plantlets; TP24) was 1, the coloration score (soybean plantlets; TP25) was 1 and the coloration score (soybean plantlets; TP26) was 0. It also gave a coloration score (soybean plantlets; TP27) of 1, a coloration score (soybean plantlets; TP28) of 2 and a coloration score (soybean plantlets; TP29) of 1. For the same molecule, the coloration score (soybean plantlets; TP30) was 1, the coloration score (soybean plantlets; TP31) was 0 and the coloration score (soybean plantlets; TP32) was 0. The coloration score (soybean plantlets; TP33) was 2, the coloration score (soybean plantlets; TP34) was 2 and the coloration score (soybean plantlets; TP35) was 1. The coloration score (soybean plantlets; TP36) was 2.
